Patent publication US20120316071A1 (published 2012)
Blank lines part the entries; values can stand above or below the binder they belong to.

How the values were obtained:
[1] = target: T1, rHuman Erythropoietin R/Fc Chimera, CF (R&D Systems Cat#963-ER) (human, UniProt P19235 25-250); experiment: MSD Multispot ECL, antigen spotted on plate, Fab 2.0 nM; blank spot 316
T1 construct: Bought reagent; also called EPO R/Fc; EPO R; Fc part of the bought chimera not given
T1 sequence (looked up): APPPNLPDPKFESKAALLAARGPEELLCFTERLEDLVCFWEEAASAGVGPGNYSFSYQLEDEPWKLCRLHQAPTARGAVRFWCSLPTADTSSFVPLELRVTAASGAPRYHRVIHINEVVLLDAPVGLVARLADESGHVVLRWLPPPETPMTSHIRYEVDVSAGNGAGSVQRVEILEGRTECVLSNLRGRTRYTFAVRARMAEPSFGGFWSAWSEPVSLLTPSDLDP

[2] = target: T2, Recombinant Human DLL4 (R&D Systems Cat#1506-D4/CF) (human, UniProt Q9NR61 27-529); experiment: as above
T2 construct: Bought recombinant protein; also called rHuman DLL4; delta-like protein 4

[3] = target: T3, rHuman ErbB2/Fc Chimera, CF (R&D Systems Cat#1129-ER) (human, UniProt P04626 23-652); experiment: as above
T3 construct: Bought reagent; also called human epidermal growth factor 2 receptor; Fc part of the bought chimera not given

[4] = target: T4, rHuman EGF R/Fc Chimera, CF (R&D Systems Cat#344-ER) (human, UniProt P00533 25-645); experiment: as above
T4 construct: Bought reagent; also called epidermal growth factor receptor; Fc part of the bought chimera not given

[5] = target: T5, rHuman HGF R/c-MET/Fc Chimera, CF (R&D Systems Cat#358-MT/CF) (human, UniProt P08581 25-932); experiment: as above
T5 construct: Bought reagent; also called HGF R/Fc; hepatocyte growth factor receptor; Fc part of the bought chimera not given

[6] = target: T6, rHuman Notch-1/Fc Chimera, CF (R&D Systems Cat#3647-TK) (human, UniProt P46531 19-526); experiment: as above
T6 construct: Bought reagent; Fc part of the bought chimera not given

[7] = target: T7, rHuman CD44/Fc Chimera, CF (R&D Systems Cat#3660-CD) (human, UniProt P16070 21-220); experiment: as above
T7 construct: Bought reagent; Fc part of the bought chimera not given

[8] = target: T8, rHuman IGF-1 sR, (IGF-1 sR), CF (R&D Systems Cat#391-GR) (human, UniProt P08069 31-932); experiment: as above
T8 construct: Bought soluble receptor; also called insulin-like growth factor-1 soluble receptor

[9] = target: T9, rHuman IGF-1 sR, CF (R&D Systems Cat#391-GR) (human, UniProt P08069 31-932); experiment: ECL Multispot (MSD) assay, antigen spotted on plate, 10 nM Fab; blank spot of this row 487
T9 construct: Bought soluble receptor; The column head prints only 'IGF-1'; also called insulin-like growth factor-1 soluble receptor

[10] = target: T10, rHuman P-Cadherin/Fc Chimera, CF (R&D Systems Cat#861-PC) (human, UniProt P22223 108-654); experiment: as above
T10 construct: Bought reagent; Fc part of the bought chimera not given

[11] = target: T11, rHuman Erythropoietin R/Fc Chimera, CF (R&D Systems Cat#963-ER) (human, UniProt P19235 25-250); experiment: as above
T11 construct: Bought reagent; also called EPO R; EPO R/Fc; Fc part of the bought chimera not given
T11 sequence (looked up): T1 sequence (looked up)

[12] = target: T12, rHuman ErbB2/Fc Chimera, CF (R&D Systems Cat#1129-ER) (human, UniProt P04626 23-652); experiment: as above
T12 construct: Bought reagent; also called human epidermal growth factor 2 receptor; Fc part of the bought chimera not given

[13] = target: T13, rHuman EGF R/Fc Chimera, CF (R&D Systems Cat#344-ER) (human, UniProt P00533 25-645); experiment: as above
T13 construct: Bought reagent; also called epidermal growth factor receptor; Fc part of the bought chimera not given

[14] = target: T14, rHuman HGF R/c-MET/Fc Chimera, CF (R&D Systems Cat#358-MT/CF) (human, UniProt P08581 25-932); experiment: as above
T14 construct: Bought reagent; also called HGF R/Fc; hepatocyte growth factor receptor; Fc part of the bought chimera not given

[15] = target: T15, rHuman Notch-1/Fc Chimera, CF (R&D Systems Cat#3647-TK) (human, UniProt P46531 19-526); experiment: as above
T15 construct: Bought reagent; Fc part of the bought chimera not given

[16] = target: T16, rHuman CD44/Fc Chimera, CF (R&D Systems Cat#3660-CD) (human, UniProt P16070 21-220); experiment: as above
T16 construct: Bought reagent; Fc part of the bought chimera not given

[17] = target: T17, rHuman P-Cadherin/Fc Chimera, CF (R&D Systems Cat#861-PC) (human, UniProt P22223 108-654); experiment: ECL Multispot (MSD), antigen spotted; Fab 500 (µM); blank 439
T17 construct: Bought recombinant protein; Fc part of the bought chimera not given

[18] = target: T18, rHuman HGF R/c-MET/Fc Chimera, CF (R&D Systems Cat#358-MT/CF) (human, UniProt P08581 25-932); experiment: Multispot ECL (MSD) assay, antigen spotted on plate, Fab at 1.56 µM; blank spot 4357
T18 construct: Bought recombinant protein; also called HGF R/Fc; hepatocyte growth factor receptor (HGF R/c-Met); Fc part of the bought chimera not given

- ECL signal [1]: 433
- ECL signal [2]: 605
- ECL signal [3]: 382
- ECL signal [4]: 424
- ECL signal [5]: 356
- ECL signal [6]: 539
- ECL signal [7]: 447
- ECL signal [8]: 367
B1: Fab VH1-8_IGHD2-2*01_IGHJ6*01 & L12_IGKJ1*01 (Fab, V domains shown)
VH: QVQLVQSGAEVKKPGASVKVSCKASGYTFTSYDINWVRQATGQGLEWMGWMNPNSGNTGYAQKFQGRVTMTRNTSISTAYMELSSLRSEDTAVYYCARGGYCSSTSCYADYYYYYGMDVWGQGTTVTVSS
VL: not shown

- ECL signal [9]: 453
- ECL signal [10]: 384
- ECL signal [11]: 326
- ECL signal [12]: 381
- ECL signal [13]: 206
- ECL signal [14]: 379
- ECL signal [15]: 450
- ECL signal [16]: 363
B2: Fab VH1-46_IGHD6-6*01_IGHJ1*01 S102A/S103P/S104F (APF) & L6_IGKJ1*01 (Fab, V domains shown)
VH: QVQLVQSGAEVKKPGASVKVSCKASGYTFTSYYMHWVRQAPGQGLEWMGIINPSGGSTSYAQKFQGRVTMTRDTSTSTVYMELSSLRSEDTAVYYCAREEYAPFSAEYFQHWGQGTLVTVSS
VL: not shown
notes: Tested as a Fab made in E. coli; also called H:APF & L:wt; APF triple mutant

- ECL signal [17]: 1010
B3: Fab VH1-46_IGHD6-6*01_IGHJ1*01 S102A/S103P/S104F (APF) & L6_IGKJ1*01 (Fab, V domains shown)
VH: B2 VH
VL: not shown
notes: Tested as a Fab made in E. coli: VH cloned in Plasmid A (CH1 constant region, His6 and Flag tags), VL in Plasmid C (kappa constant region); also called H:APF & L:wt; APF triple mutant

- ECL signal [18]: 10300
B4: Fab VH1-46_IGHD7-27*01_IGHJ2*01 & L6_IGKJ1*01 (Fab, V domains shown)
VH: QVQLVQSGAEVKKPGASVKVSCKASGYTFTSYYMHWVRQAPGQGLEWMGIINPSGGSTSYAQKFQGRVTMTRDTSTSTVYMELSSLRSEDTAVYYCARANWGYWYFDLWGRGTLVTVSS
VL: not shown
notes: Germline Fab made in E. coli; VH was cloned in Plasmid A (CH1 constant region, His6 and Flag tags) and the kappa VL in Plasmid C (kappa CL); Only the variable domains are tied to this Fab by name
